Drawing on article doi:10.1101/2023.12.19.572259, this text covers Kd, fold higher ka than v119 and fold lower kd than v119 for four molecules.

Numbering of substitutions follows the chain as printed. Read-outs that look alike come from different tables or passages of the source.

Common to all, as to assay: SPR
On the technique in general: SPR reads the build-up and loss of mass on a sensor chip optically.

For assay [1], the target named is monomeric streptavidin variant mSA, wild type.
The target of assay [2] is monomeric streptavidin variant mSA with the S27A mutation.
Assay [3] deals with monomeric streptavidin variant mSA, wild type. This is another data set of the same source.

As a reminder, the Kd is the equilibrium constant for the complex coming apart. Low readings indicate higher affinity, high ones lower affinity. The molecule “Smt3 SUMO protein biotinylated at the N-terminus with biotin C2 maleimide (from UniProt Q12306 1-101) (natural protein)” returned a Kd in assay [1] of 9.6 nM.

B1: 4NBX.B-biotin103 variant v186_Fr (VHH)
VHH: QVQLQESGGGLVQAGGSLRLSCAASGRTFSRSPMAWYRQPPGKEREFVAAGSSTGTTTYYADSVKGRFTISRDNAKNTVYLQMNSLKPEDTAVYYCAAAPLGCARKFAESAYWGQGTQVTVSS
On to B1, for which the equilibrium dissociation constant (Kd) in assay [2] is 54 nM; in assay [3] it was 0.2 nM.

B2: 4NBX.B-biotin103 variant v149 (VHH)
VHH: B1 VHH with V12A, Y37F, T56R, L101Y, K106Y, F107R, A108D, S110Y
In assay [3], B2 displayed a Kd of 0.12 nM, a fold higher ka than v119 of 4 fold and a fold lower kd than v119 of 2 fold.

B3: 4NBX.B-biotin103 variant v119 (VHH)
VHH: QVQLQESGGGLAQAGGSLRLSCAASGRTFSHAPMAWFRQPPGKEREFVAAGSSTGRTTYYADSVKGRFTISRDNAKNTVYLQMNSLKPEDTAVYYCAAAPYGCSHYRDEYAYWGQGTQVTVSS
B3 came in with a dissociation constant (Kd) in assay [3] of 0.9 nM.
